Experimental data as given in patent publication US20250000946A1.

Target: Human IL-2Rα/β/γ complex (high affinity IL-2 receptor) (human) (UniProt P01589)
Experiment: cell-based or functional assay

Sequence of Human IL-2Rα/β/γ complex (high affinity IL-2 receptor) (human) (P01589 22-272, chain 1 of 3): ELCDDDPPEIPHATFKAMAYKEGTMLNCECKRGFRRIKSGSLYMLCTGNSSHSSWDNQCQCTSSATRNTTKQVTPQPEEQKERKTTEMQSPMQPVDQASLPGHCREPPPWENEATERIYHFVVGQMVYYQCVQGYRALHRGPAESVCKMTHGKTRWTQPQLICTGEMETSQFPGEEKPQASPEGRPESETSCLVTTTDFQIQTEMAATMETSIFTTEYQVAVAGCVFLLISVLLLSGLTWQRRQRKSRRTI
Sequence of Human IL-2Rα/β/γ complex (high affinity IL-2 receptor) (human) (P14784 27-551, chain 2 of 3, further chain): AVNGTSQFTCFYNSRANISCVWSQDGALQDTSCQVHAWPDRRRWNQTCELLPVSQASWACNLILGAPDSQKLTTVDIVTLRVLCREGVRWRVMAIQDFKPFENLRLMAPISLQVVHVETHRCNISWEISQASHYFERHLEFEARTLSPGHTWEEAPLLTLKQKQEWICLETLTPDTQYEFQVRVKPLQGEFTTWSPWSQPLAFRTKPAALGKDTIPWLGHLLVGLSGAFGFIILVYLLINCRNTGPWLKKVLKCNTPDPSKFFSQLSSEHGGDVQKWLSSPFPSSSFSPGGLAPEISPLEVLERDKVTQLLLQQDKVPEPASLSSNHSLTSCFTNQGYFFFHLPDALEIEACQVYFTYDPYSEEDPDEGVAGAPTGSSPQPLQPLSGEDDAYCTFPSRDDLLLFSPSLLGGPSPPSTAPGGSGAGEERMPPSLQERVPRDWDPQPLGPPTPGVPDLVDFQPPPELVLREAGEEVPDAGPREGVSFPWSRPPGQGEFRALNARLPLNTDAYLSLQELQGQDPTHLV
Sequence of Human IL-2Rα/β/γ complex (high affinity IL-2 receptor) (human) (P31785 23-369, chain 3 of 3, further chain): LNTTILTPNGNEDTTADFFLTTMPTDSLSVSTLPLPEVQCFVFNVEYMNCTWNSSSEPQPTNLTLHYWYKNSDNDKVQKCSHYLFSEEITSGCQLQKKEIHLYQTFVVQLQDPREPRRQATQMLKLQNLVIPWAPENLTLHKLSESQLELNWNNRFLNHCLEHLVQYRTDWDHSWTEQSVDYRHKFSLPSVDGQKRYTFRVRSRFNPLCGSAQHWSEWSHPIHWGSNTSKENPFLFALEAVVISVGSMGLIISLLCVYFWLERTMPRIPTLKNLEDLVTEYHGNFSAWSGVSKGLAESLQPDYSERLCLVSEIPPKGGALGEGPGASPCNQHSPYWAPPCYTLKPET

Human Treg Potency EC50 (STAT5 phosphorylation)	Human Treg Potency reduction	Binder
7.78 nM	5560 fold	W3XX115-T3U0.E44-1.uIgG4V322 (Fc fusion) APTSSSTKKTQLQLEHLLLDLQMILNGINNYKNPKLTRMLTAKFAMPKKATELKHLQCLEEELKPLEEVLNGAQSKNFHLRPRDLISNINVIVLELKGSETTFMCEYADETATIVEFLNRWITFCQSIISTLTESKYGPPCPPCPAPEAAGGPSVFLFPPKPKDTLMISRTPEVTCVVVDVSQEDPEVQFNWYVDGVEVHNAKTKPREEQFNSTYRVVSVLTVLHQDWLNGKEYKCKVSNKGLPSSIEKTISKAKGQPREPQVYTLPPCQEEMTKNQVSLWCLVKGFYPSDIAVEWESNGQPENNYKTTPPVLDSDGSFFLYSRLTVDKSRWQEGNVFSCSVMHEALHNHYTQKSLSLSLG heavy: EIQLQQSGPELVKPGASVKVSCKASGYSFTDYNMYWVKQSHGESLEWIGYIDPYNGGTRYNQKFKGKATLTVDKSSSTAFMHLNSLTSEDSAVYYCARNGHWDGAWFAYWGQGTLVTVSAASTKGPSVFPLAPCSRSTSESTAALGCLVKDYFPEPVTVSWNSGALTSGVHTFPAVLQSSGLYSLSSVVTVPSSSLGTKTYTCNVDHKPSNTKVDKRVESKYGPPCPPCPAPEAAGGPSVFLFPPKPKDTLMISRTPEVTCVVVDVSQEDPEVQFNWYVDGVEVHNAKTKPREEQFNSTYRVVSVLTVLHQDWLNGKEYKCKVSNKGLPSSIEKTISKAKGQPREPQVCTLPPSQEEMTKNQVSLSCAVKGFYPSDIAVEWESNGQPENNYKTTPPVLDSDGSFFLVSRLTVDKSRWQEGNVFSCSVMHEALHNHYTQKSLSLSLG light: DIQMNQSPSSLSASLGDTITITCHASQNINVWLSWYQQKPGNIPKLLIYKASNLHTGVPSRFSGSRSGTGFTLTISSLQPEDIATYYCHQGQSYPFTFGSGTKLEIKRTVAAPSVFIFPPSDEQLKSGTASVVCLLNNFYPREAKVQWKVDNALQSGNSQESVTEQDSKDSTYSLSSTLTLSKADYEKHKVYACEVTHQGLSSPVTKSFNRGEC
48.8 nM	34900 fold	W3XX115-T2U0.E44-31.uIgG4V322 (Fc fusion) APTSSSTKKTQLQLEHLLLDLQMILNGINNYKNPKLTRMLTVKFYMPKKATELKHLQCLEEELKPLEEVLNLAQSKNFHLRPRDLISNINVIVLELKGSETTFMCEYADETATIVEFLNRWITFCQSILESKYGPPCPPCPAPEAAGGPSVFLFPPKPKDTLMISRTPEVTCVVVDVSQEDPEVQFNWYVDGVEVHNAKTKPREEQFNSTYRVVSVLTVLHQDWLNGKEYKCKVSNKGLPSSIEKTISKAKGQPREPQVYTLPPCQEEMTKNQVSLWCLVKGFYPSDIAVEWESNGQPENNYKTTPPVLDSDGSFFLYSRLTVDKSRWQEGNVFSCSVMHEALHNHYTQKSLSLSLG heavy: EIQLQQSGPELVKPGASVKVSCKASGYSFTDYNMYWVKQSHGESLEWIGYIDPYNGGTRYNQKFKGKATLTVDKSSSTAFMHLNSLTSEDSAVYYCARNGHWDGAWFAYWGQGTLVTVSAASTKGPSVFPLAPCSRSTSESTAALGCLVKDYFPEPVTVSWNSGALTSGVHTFPAVLQSSGLYSLSSVVTVPSSSLGTKTYTCNVDHKPSNTKVDKRVESKYGPPCPPCPAPEAAGGPSVFLFPPKPKDTLMISRTPEVTCVVVDVSQEDPEVQFNWYVDGVEVHNAKTKPREEQFNSTYRVVSVLTVLHQDWLNGKEYKCKVSNKGLPSSIEKTISKAKGQPREPQVCTLPPSQEEMTKNQVSLSCAVKGFYPSDIAVEWESNGQPENNYKTTPPVLDSDGSFFLVSRLTVDKSRWQEGNVFSCSVMHEALHNHYTQKSLSLSLG light: DIQMNQSPSSLSASLGDTITITCHASQNINVWLSWYQQKPGNIPKLLIYKASNLHTGVPSRFSGSRSGTGFTLTISSLQPEDIATYYCHQGQSYPFTFGSGTKLEIKRTVAAPSVFIFPPSDEQLKSGTASVVCLLNNFYPREAKVQWKVDNALQSGNSQESVTEQDSKDSTYSLSSTLTLSKADYEKHKVYACEVTHQGLSSPVTKSFNRGEC
40.9 nM	29200 fold	W3XX115-T2U0.E44-32.uIgG4V322 (Fc fusion) APTSSSTKKTQLQLEHLLLDLQMILNGINNYKNPKLTRMLTIKFYMPKKATELKHLQCLEEELKPLEEVLNLAQSKNFHLRPRDLISNINVIVLELKGSETTFMCEYADETATIVEFLNRWITFCQSILESKYGPPCPPCPAPEAAGGPSVFLFPPKPKDTLMISRTPEVTCVVVDVSQEDPEVQFNWYVDGVEVHNAKTKPREEQFNSTYRVVSVLTVLHQDWLNGKEYKCKVSNKGLPSSIEKTISKAKGQPREPQVYTLPPCQEEMTKNQVSLWCLVKGFYPSDIAVEWESNGQPENNYKTTPPVLDSDGSFFLYSRLTVDKSRWQEGNVFSCSVMHEALHNHYTQKSLSLSLG heavy: EIQLQQSGPELVKPGASVKVSCKASGYSFTDYNMYWVKQSHGESLEWIGYIDPYNGGTRYNQKFKGKATLTVDKSSSTAFMHLNSLTSEDSAVYYCARNGHWDGAWFAYWGQGTLVTVSAASTKGPSVFPLAPCSRSTSESTAALGCLVKDYFPEPVTVSWNSGALTSGVHTFPAVLQSSGLYSLSSVVTVPSSSLGTKTYTCNVDHKPSNTKVDKRVESKYGPPCPPCPAPEAAGGPSVFLFPPKPKDTLMISRTPEVTCVVVDVSQEDPEVQFNWYVDGVEVHNAKTKPREEQFNSTYRVVSVLTVLHQDWLNGKEYKCKVSNKGLPSSIEKTISKAKGQPREPQVCTLPPSQEEMTKNQVSLSCAVKGFYPSDIAVEWESNGQPENNYKTTPPVLDSDGSFFLVSRLTVDKSRWQEGNVFSCSVMHEALHNHYTQKSLSLSLG light: DIQMNQSPSSLSASLGDTITITCHASQNINVWLSWYQQKPGNIPKLLIYKASNLHTGVPSRFSGSRSGTGFTLTISSLQPEDIATYYCHQGQSYPFTFGSGTKLEIKRTVAAPSVFIFPPSDEQLKSGTASVVCLLNNFYPREAKVQWKVDNALQSGNSQESVTEQDSKDSTYSLSSTLTLSKADYEKHKVYACEVTHQGLSSPVTKSFNRGEC
